The target of assay [1] is T1, anthrax protective antigen (PA) (Bacillus anthracis, UniProt P13423 30-764). Description: SPR.
In assay [2] the target is T1, anthrax protective antigen (PA). Description: SPR (Biacore 3000), PA down; antibody analyte. (In general: SPR reads the build-up and loss of mass on a sensor chip optically.)
Assay [3] shares this target. Description: SPR (Biacore 3000), antibody down; PA analyte.
Assay [4] has the same target. Description: not stated (presumably SPR).

The values that follow come from patent US20060121045A1 (published 2006).

As usually defined, the Kd is the free concentration of one partner at which half of the binding sites on the other are occupied at equilibrium, for simple one-to-one binding. A high value points to lower affinity. As a reminder, the koff is the first-order rate constant of dissociation. Broadly, the kon is the rate constant with which the complex forms. Low values mean slower complex formation, high ones faster complex formation.

T1 sequence (P13423 30-764 limits assumed): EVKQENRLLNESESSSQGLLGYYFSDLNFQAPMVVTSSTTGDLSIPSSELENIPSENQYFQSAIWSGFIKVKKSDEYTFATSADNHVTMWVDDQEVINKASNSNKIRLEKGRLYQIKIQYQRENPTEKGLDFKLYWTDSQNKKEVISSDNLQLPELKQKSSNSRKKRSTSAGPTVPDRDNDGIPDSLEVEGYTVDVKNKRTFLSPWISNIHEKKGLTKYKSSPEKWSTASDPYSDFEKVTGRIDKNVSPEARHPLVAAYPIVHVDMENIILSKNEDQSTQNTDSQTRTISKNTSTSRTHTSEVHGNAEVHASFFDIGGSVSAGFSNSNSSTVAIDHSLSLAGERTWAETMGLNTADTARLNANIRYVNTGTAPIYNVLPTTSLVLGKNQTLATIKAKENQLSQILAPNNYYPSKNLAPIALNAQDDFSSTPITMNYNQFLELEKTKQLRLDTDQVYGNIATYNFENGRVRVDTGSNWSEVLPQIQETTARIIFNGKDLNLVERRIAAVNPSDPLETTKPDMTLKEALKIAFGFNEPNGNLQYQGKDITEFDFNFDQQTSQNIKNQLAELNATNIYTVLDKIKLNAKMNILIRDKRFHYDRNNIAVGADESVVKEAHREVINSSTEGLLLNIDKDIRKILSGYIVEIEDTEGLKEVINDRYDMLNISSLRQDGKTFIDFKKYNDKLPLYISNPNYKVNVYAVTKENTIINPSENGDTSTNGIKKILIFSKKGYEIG

B1: anti-PA 14B7 scFv (scFv)
scFv: DIQMTQTTSSLSASLGDRVTISCRASQDIRNYLNWYQQKPDGTVKLLIYYTSRLQSGVPSRFSGSGSGTDYSLTISNQEQEDIGTYFCQQGNTLPWTFGGGTKLEIKRGGGGSGGGGSGGGGSGGGGSEVQLQQSGPELVKPGASVKISCKDSGYAFSSSWMNWVKQRPGQGLEWIGRIYPGDGDTNYNGKFKGKATLTADKSSSTAYMQLSSLTSVDSAVYFCARSGLLRYAMDYWGQGTSVTVSS
For the molecule B1, in assay [1], the Kd came out at 4.3 nM, the koff was found to be 0.003 s⁻¹ and the kon was 710000 M⁻¹ s⁻¹.

B2: M18 scAb-PEG 40 kDa (scFv)
scFv: DIQMTQTTSSLSASLGDRVTVSCRASQDIRNYLNWYQQKPDGTVKFLIYYTSRLQPGVPSRFSGSGSGTDYSLTINNLEQEDIGTYFCQQGNTPPWTFGGGTKLEIKRGGGGSGGGGSGGGGSGGGGSEVQLQQSGPELVKPGASVKISCKDSGYAFNSSWMNWVKQRPGQGLEWIGRIYPGDGDSNYNGKFEGKAILTADKSSSTAYMQLSSLTSVDSAVYFCARSGLLRYAMDYWGQGTSVTVSS
Turning to B2, the Kd was 2.6 nM in assay [2] and 0.043 nM in assay [3]. Further, the on-rate (kon) in assay [2] is 27000 M⁻¹ s⁻¹; in assay [3] it was 870000 M⁻¹ s⁻¹.

B3: M18 scAb-PEG 20 kDa (scFv)
scFv: DIQMTQTTSSLSASLGDRVTVSCRASQDIRNYLNWYQQKPDGTVKFLIYYTSRLQPGVPSRFSGSGSGTDYSLTINNLEQEDIGTYFCQQGNTPPWTFGGGTKLEIKRGGGGSGGGGSGGGGSGGGGSEVQLQQSGPELVKPGASVKISCKDSGYAFNSSWMNWVKQRPGQGLEWIGRIYPGDGDSNYNGKFEGKAILTADKSSSTAYMQLSSLTSVDSAVYFCARSGLLRYAMDYWGQGTSVTVSS
Regarding B3, the Kd in assay [2] was 0.69 nM; in assay [3] it was 0.025 nM. The kon was 100000 M⁻¹ s⁻¹ in assay [2] and 780000 M⁻¹ s⁻¹ in assay [3].

B4: M18 scAb (scFv)
scFv: DIQMTQTTSSLSASLGDRVTVSCRASQDIRNYLNWYQQKPDGTVKFLIYYTSRLQPGVPSRFSGSGSGTDYSLTINNLEQEDIGTYFCQQGNTPPWTFGGGTKLEIKRGGGGSGGGGSGGGGSGGGGSEVQLQQSGPELVKPGASVKISCKDSGYAFNSSWMNWVKQRPGQGLEWIGRIYPGDGDSNYNGKFEGKAILTADKSSSTAYMQLSSLTSVDSAVYFCARSGLLRYAMDYWGQGTSVTVSS
For the molecule B4, the Kd turned out to be 0.035 nM in assay [1], 0.054 nM in assay [4], 0.044 nM in assay [2] and 0.095 nM in assay [3]. In assay [1], the koff is 4.2e-05 s⁻¹. The kon in assay [1] is 1.2e+06 M⁻¹ s⁻¹; in assay [2] it was 1.4e+06 M⁻¹ s⁻¹; in assay [3], 930000 M⁻¹ s⁻¹. In addition, the “fold improvement of KD over the whole antibody to PA” value in assay [4] is roughly 5 fold.
